Data on 1 substance can be found in publication PMC12524713.

For assay [1], the target named is SARS-CoV-2 3-chymotrypsin-like protease (3CL^pro) (SARS-CoV-2). The assay is described as follows: mass photometry; TwoMP mass photometer, proteins diluted in PBS to 10 nM, room temperature, 60 s; the monomer is too small to resolve.
Assay [2] deals with catalytic domain of matrix metalloproteinase-14 (MMP14) (human) (UniProt P50281). The assay is described as follows: SPR; cat-MMP14 amine-coupled on a CM5 chip (Biacore T200); 3CL^pro (0.062-20 uM) or PL^pro (0.041-10 uM) flowed in PBSP (20 mM phosphate pH 7.4, 137 mM NaCl, 2.7 mM KCl, 0.05% P20), 30 uL/min, 180 s association, 300 s dissociation, 25 C; 1:1 Langmuir kinetic fit, KD = kd/ka. Background: SPR reads the build-up and loss of mass on a sensor chip optically.

Broadly, the stoichiometry N is a count of units in the complex or per binding partner. For orientation: Kd means a measure of binding affinity in units of concentration. As a reminder, the koff is the rate constant with which the complex falls apart. One may read the kon as the rate constant with which the complex forms. Higher therefore signals fast association. With “SARS-CoV-2 3-chymotrypsin-like protease (3CL^pro) (enzyme)”, the stoichiometry N in assay [1] was determined as 2. Further, in assay [2], the Kd turned out to be 3.21 µM, the koff is 0.0012 s⁻¹ and the kon came to 386 M⁻¹ s⁻¹.
